# Assay: label from the status in PepcDB records
# 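Further: failed if final PepcDB status was selected cloned or expressed and not failed if soluble or beyond.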
row,Sequence,protein production
1,MPYERKIINDPVFGFINIPKGLLYDIVRHPLLQRLTRIKQVGLSSVVYPGAQHTRFQHSLGAFYLMSEAITQLTSKGNFIFDSEAEAVQAAILLHDIGHGPFSHVLEDTIVQGVSHEEISLMLMERMNKEMNGQLSLAIQIFKDEYPKRFLHQLVSGQLDMDRLDYLRRDSFYTGVTEGNIGSARIIKMLDVADDRLVIESKGIYSIENFLTARRLMYWQVYLHKTSVAYERMLISTLLRAKELASQGVELFASPALHFFLYNDINHTEFHNNPDCLENFIQLDDNDIWTALKVWSNHPDKVLSTLSLGMINRNIFKVENSAEPIGEDRIKELTLQISQQLGITLSEANYFVSTPSIEKNMYDPADDSIDIIYKDGTIKNIAEASDMLNISLLSKKVKKYYLCYQRLHR,not failed
2,KAPNLYMTDTTGTYRYLYDVQAKYTILFFWDSQCGHCQQETPKLYDWWLKNRAKGIQVYAANIERKDEEWLKFIRSKKIGGWLNVRDSKNHTDFKITYDIYATPVLYVLDKNKVIIAKRIGYENLDDFLVQYEKSLKTK,not failed
3,MADVAVLNIDSVICVNKNNDKSTPLTQLFLVLVAAESFYPTRRFVGIRVKRRQHQHLLESLVHSTAKQQGDFTKTAELATELLCQNLAVSLVSIWIFSADQGTQSLVAQFGSMALQDTYRPSLLHTVPRYLNELKNYRHIDAGNTLIDPRLTELVDSYFIPRQILSSLDVGIRINGHLEGVLCIERAQVTHHWHDSEIHLACQMADQLALTLATKHAYDKEERLSLFRCAIEQSRQMSMLINLHTEKVEYVNQAHEDITGIARDKSIGTNLRDLTFFRQHNALAEQTLAKIFRGDQAKGEVQFSRTDGSRYWLKYIVSQFITDRGNHYALVSGEENSDEHNYKAELERLAWRCGLTGLNNRSHFNRVLERTTHGLLLLVDLVAFKRFNDTYGHENGDSLLIEVGRRLKHFSEINKATEIARVGSDEFAVLLTDDNAVYDLDYFSTRLYQHLAMPILIGREQVEPKPALAVVDIASVANLFAPLTCADIAVQYAKKKKGTAIQVFNSTLLSAFKEDAQIERDLHSAIRGRQFELYYQPLRDLEQQTYIGAEALIRWHHPKKGVLYPGAFIDIAEQSGMINAIGSWVLEAACRQLNIWQHHNADLSMHVNVSARQFFSGNLYEQVWQLLTRYRLKPKTLILEITETELMGDIRHATLLCQELAELGVGLAIDDFGTGYSSMRYLKQFPISKLKIDRSFISDLTISRESQEIVSAIIAMANALNISLTAEGVETAEQEAFLAKSLCHQAQGFLYSPALREPEFAQFLLTAKQPNLIAH,failed
4,MQIPIYSKLKTKLESKGIDNISSGQIAWFVCSLILALVTYIILTFHYIYISYGKYDKNLFLLIFDRNAIELFVIVYSCIMFNLLYIYNAIPLVLSAVFIFLAFYFSSLSLFIVGCCGIGVFFLISIFKRKFMFSVLLFALGYTCTLFFFYGLATY,failed
5,MAKYFDIDDILIEEEFVPVLFHKTANGVTIDPSAETNCVSLLIPSAKAEQGSKVELPFWLAHELHLRQAVTINLPPCFDQKTRLEVQADAAYVDLRSRCPYFYEFGCKIEPLVTDRTLGILLSTAFKIRYKEALTKVYTAAHITASKYLSFLTKEETNLYEAAHLSMTAFKKWRTGGPRFQRASILGRKRKDSN,failed
6,MLKVLFVPLNRNYVFDYIDDWKNIVADSLSRAGLSSEILIWPSTIKPSMKCFNWARKQYLAPCIIENMGNMFYDYLNEYFIVGIGYIDGYDYGLNFVFGEASPINRIAVVFTRRLDPRFYGEEPNYNLYLERVAKEIVHELGHLLGLSHCKRRTCVMSFSNSVYEVDAKTRFFCETCSNTLRKLNVLEHHHHHH,failed
7,SWNQAPKLHYCLDYDCQKAELFVTRLEAVTSNHDGGCDCYVQGSVANRTGSVEAQTALKKRQLHTTWEEGLVLPLAEEELPTATLTLTLRTCDRFSRHSVAGELRLGLDGTSVPLGAAQWGELKT,not failed
8,MKRFILLSFVVLALGFYELSGGPDFDPEVARASIIDARQERELARKAALPGPVYVAAAPSAEPEVEDSVTRANLNLVSFASVVAEPEISTVTAPVAVARADTPETAPEITVKRLAAAQDEPLSLAALSPAQEPSRNVFAGSSIVASSSDINGEKNLRSVKGTRVNMRSGPGTQYDVVAQLTQSEEVEVLTDTGNGWVELRPLEGGPTGWVAEFLLTGG,failed
9,MTNHEQVLTDYLAAFIEELVQAGVKEAIISPGSRSTPLALMMAEHPTLKIYVDVDERSAGFFALGLAKASKRPVVLLCTSGTAAANYFPAVVEANLSQIPLIVLTADRPHELRNVGAPQAMDQLHLYGSHVKDFTDMALPENSDEMLRYAKWHSSRAVDIAMKTPRGPVHLNFPLREPLVPILEPSPFTATGKKHHHVH,failed
10,MEIGRVVGNVWATRKDEKLNGQKFLIVKLLVSKDKEKEGLFVAADNAGAGIGDIVLITKGGAARQSIGNREVPIDAAIVGIVDSIDIEEDLEHHHHHH,not failed
11,MNYFLMIILGVLGAESRFAIELTIDNSAYPYGTLIINMIGCFLLGFMYYFFVEAKKTINQLVAVVSTGFVGSFTTFSTFELEIFKMFQLDQYLKAISYFFVTMLSGLLFVFLGYCLSKLIIIKRKENK,failed
12,MPKSKEMEEEMKENSQDKNFMYKLAEFIVDKRNLFFLIYIIALVFCIFSRNWVKVENDVTKYLPDSTETRQGLTVMNDQFVTYGTAQVLLANISYDRAQEAADMIEDINGVTSVTFDNTEDHYKGTSALLDVTFDGEEEDQISIDAMNEIKDKLTGYDVYYSTSVANDDSANLESEMQVVTAIAAVIIVVVLLLTSKSYAEVPVLLITFIAAALLNMGTNFLLGTISFISNSVTIVLQLALAIDYAIILCHRYTEERENLPAREATITALSKAIPEISSSSLTTVSGLLALAFMQFKIGEDLAVVLIKAIILSLISVFTLMPGLIMVFSKWMDKTVHKNLIPSISAVGKFAIKTKYIIPPIFAAVIIVACVFANMCPYCFSTGSTSTPRKSESTIAQEKIDSTFGSRNMIALVVPAGNYEAEKNLLADLDACDEVKSTQGLANTEAMDGYMLTDSLTPREFSELVGLDYEVAQLLYSAYAINQENYGEVINSSSKYSVPLIDMFEFLLDEIDKGYVTLEGDLKDQMDDLSGQLDKALLQLKTDDYSRLVVYLNLPEEGDETFAFLDRVHEMMAKYYTDNYYVVGNSTSDYDLSSSFSRDNLVISILSALFVIIILLFTFKSAGLPVLLILVIQGSIWINFSFPYLMDSPLYFLGYLVVNSIQMGANIDYAIVISSRYDDLKKQLPIKEAIIETLNQAFPTIITSGSILAAAGILISFLSTNGVISAIGTCLGRGTIISIILVMGVLPQILYLGDVIIEKTRFSINTDNLIQNTGGTMVINGRMRGYVSGIIDAEIHGVIKGEVKGQIDVNNIDVIKKEEPEDGGDGNEEA,failed
13,MPKLNLTSIDVLLSDDSDRRQLACKSNHSTVSSLPAMDSRESITSTSPEVAILLCTYHGQRYLPEQLASFEVQSHSNWKVWASDDGSEDGTHAILDAYSRKWPEGRLSICSGPSEGFAANFISLTCKDSIQADFYAYSDQDDIWNVNKLARAVQWLETVPVNIPALYCSRTRLVDSDDNEIGISPLFVRPPSFANALMQNIGGGNTMVFNNAARELFCEAGENTLVVAHDWWAYIAVTGCGGQVFYDREPTLRYRQHNGNLIGTNSNWSARFKRIHMLFQGEFRRWSDINIAALGALEHKLTPENREILQRFASGRKMSLIPRLIQFKRAGIYRQTLFSNFGLVVAAIFGKV,failed
14,MTYEAGCGLIKALEDPDNRVRQRAVKTLGKRGNPDVLEDLMEALKDSRQPVQEAASEALRKIIAASDSVPVLVKALDATDRNVRKAAIEALWKAGTPEAIPPLLRELDDADWYLRSRAADALADIASPEAALGLIKVMDIHDSPVKKIIVNALGKIGTVEAVEGLVKALEDLEHHHHHH,failed
15,MKKLINRVDDVLSEQLQGFAKAHPEINLHPSSFYVTRHDAPVKGKVALLSGGGSGHEPMHAGFVGKGMLDGACPGEIFTSPTPDKMYDCAKAIDSGEGVLMIVKNYTGDVLNFETATELLHDEGVKIATVLVDDDVAVKDSLYTAGRRGVANTVLMEKLLGAAAERGDTLDDLVKLGHQINNNGFSIGIALQACTVPAAGKPSFTLPENEMEFGVGIHGEPGIDRRPFTSLNDTVDAMFNTLIENGHYQRTIRSWDRVNGDWIEETQEKQPLKSGDRVIALVNNLGATPLSELYGVYHRLALCCENFGLNIERSLIGSYCTSLDMSGISITLLKVDDALLTLWDAPVATPAMTK,failed
16,MVKKGFLTGLLLFGIFFGAGNLIFPPALGVASGQDFWPAILGFCLSGVGLAIITLLLGTLTNGGYKTEMSEKFSPWFSLTFLVILYLTIGPLFAIPRTATVSFEIGVAPIVGHSPIALLCFTACFFAAAYYLAIRPNGILDSVGKILTPVFAFLILSLVVVGAIAYGNLESAKASADYAGKAFGSGVLAGYNTLDALAAVAFCLVATETLKKFGFKTKKEYLSTIWIVGIVTSLAFSILYIGLGFLGNKFPVPADILADPNVNKGAYVLSQASYKLFGNFGRYFLSIMVTLTCFTTTVGLIVSVSEFFDKNFRFGNYKLFATVFTLIGFLIANLGLNAVITFSVPVLTLLYPIVIVIVLIILINKWLPLSKKGMSLTIGLVTLVSFVEVLAGQWQEKTLTQLVGFLPFHTISMGWLVPMLIGIVFSLVLSDKQKGQAFDLEKFEG,failed
17,LSRVGSAEWNLLTDEATWSGELYQILGRDPAAPPLTLDELPSFVHDEDRPRLTAMVTDCLIDAKPIDGEFRIVRPDGGVRTVHMMGEPVLDAHGSTASMWAVLRDVSE,not failed
18,MQQALAFVARHGRLGLMVGLGAGLALPGLAAVMRPWIPQLVALLLFLTAFRIGPVDAAGSLADLTRTARRVLVLQLALPILFLLGLRLLGLPVTPLALVLALVLAAPSVTGSANFTILLAQDPAPALRLLILGTALLPLTAIPVFWLLPAFGDPAEVFGAALRLLGVILLAAGCGFALRHWGARQLSDLNRRAMDGLTVIALAVIVIALMSAVRPAMTERPAELAFWLLAAFAINLGGQTLCYLTLRATGGADPVPTSIVAGNRNFALFFVALPSEVTEPLLIFLGCYQFPMYLTPTLMRRLYDPV,failed
19,MEQVIAQVIKRQQTEERPPDVLSQQTTKYEKRNSASLRKRKNSSKLYLKTDQNWMALREKLASNSIHDKGKYRQKRESNVTCFKSGVESGIQNSSVRSRETQVTFCDGTVPSQGLELANSKSTAEISSRNEIPRLTKVVALDCEFVGVGKLGKEHSLARVSIVNFKGEVLYDKYVLNDKEPVVDYRTSVSGIRPEHLRSSDAVSFEQAQRDVYSIIRNRILVGHAIHHDMHALLLSHPRKLIRDTSKWRGLRSHHLSRKTPSLRKLAQEILGIRIQDGEHDSVEDARATLMIYKRFAKEWEMELQTKKVKLARKKHR,failed
20,MNKDLKAIKWFITTQILKDPFNPAYATFKVTSRCNLRCTFCSPSYYSGELGEGSTERVKKIIDNLRDSSIVVLSFEGGEPTYRPDILDLLEYAHDGSFYIMLTTNGYRLKDEDFLTKLADKIDFLHYSIDEYHWNVKELENLCRFRKYGLKVNVQTVVTRYNLYKLEEKVRKVAECGYKILAMPAVDYPNSKVKLAPDPYEFYKVLYDLKRKYGSTLNNSWGFINAIIGKVPKRVVSYAITIYPNGDLPYPDDINGEIVGNVAEEPLNKILQSSKVKELQQKMLENQAKFEYLHLQTASFNNIRDLASYVSEMLRWRFTGRA,failed
21,MDMGNQHPSISRLQEIQREVKAIEPQVVGFSGLSDDKNYKRLERILTKQLFEIDSVDTEGKGDIQQARKRAAQETERLLKELEQNA,not failed
22,MQIYLSTLTELDYDKSLNSIEESFDDNPETSWQARAKVKHLRKSPCYNFELEVIAKNENNDVVGHVLLIEVEINSDDKTYYGLAIASLSVHPELRGQKLGRGLVQAVEERAKAQEYSTVVVDHCFDYFEKLGYQNAAEHDIKLESGDAPLLVKYLWDNLTDAPHGIVKFPEHFY,failed
